Reference: EP1475388A2

Target: human calcium sensitive potassium channel α subunit (human Slowpoke α) (human), Q12791
Assay: cell-based or functional assay

Chain of human calcium sensitive potassium channel α subunit (human Slowpoke α) (human), Q12791 (Q12791 whole entry): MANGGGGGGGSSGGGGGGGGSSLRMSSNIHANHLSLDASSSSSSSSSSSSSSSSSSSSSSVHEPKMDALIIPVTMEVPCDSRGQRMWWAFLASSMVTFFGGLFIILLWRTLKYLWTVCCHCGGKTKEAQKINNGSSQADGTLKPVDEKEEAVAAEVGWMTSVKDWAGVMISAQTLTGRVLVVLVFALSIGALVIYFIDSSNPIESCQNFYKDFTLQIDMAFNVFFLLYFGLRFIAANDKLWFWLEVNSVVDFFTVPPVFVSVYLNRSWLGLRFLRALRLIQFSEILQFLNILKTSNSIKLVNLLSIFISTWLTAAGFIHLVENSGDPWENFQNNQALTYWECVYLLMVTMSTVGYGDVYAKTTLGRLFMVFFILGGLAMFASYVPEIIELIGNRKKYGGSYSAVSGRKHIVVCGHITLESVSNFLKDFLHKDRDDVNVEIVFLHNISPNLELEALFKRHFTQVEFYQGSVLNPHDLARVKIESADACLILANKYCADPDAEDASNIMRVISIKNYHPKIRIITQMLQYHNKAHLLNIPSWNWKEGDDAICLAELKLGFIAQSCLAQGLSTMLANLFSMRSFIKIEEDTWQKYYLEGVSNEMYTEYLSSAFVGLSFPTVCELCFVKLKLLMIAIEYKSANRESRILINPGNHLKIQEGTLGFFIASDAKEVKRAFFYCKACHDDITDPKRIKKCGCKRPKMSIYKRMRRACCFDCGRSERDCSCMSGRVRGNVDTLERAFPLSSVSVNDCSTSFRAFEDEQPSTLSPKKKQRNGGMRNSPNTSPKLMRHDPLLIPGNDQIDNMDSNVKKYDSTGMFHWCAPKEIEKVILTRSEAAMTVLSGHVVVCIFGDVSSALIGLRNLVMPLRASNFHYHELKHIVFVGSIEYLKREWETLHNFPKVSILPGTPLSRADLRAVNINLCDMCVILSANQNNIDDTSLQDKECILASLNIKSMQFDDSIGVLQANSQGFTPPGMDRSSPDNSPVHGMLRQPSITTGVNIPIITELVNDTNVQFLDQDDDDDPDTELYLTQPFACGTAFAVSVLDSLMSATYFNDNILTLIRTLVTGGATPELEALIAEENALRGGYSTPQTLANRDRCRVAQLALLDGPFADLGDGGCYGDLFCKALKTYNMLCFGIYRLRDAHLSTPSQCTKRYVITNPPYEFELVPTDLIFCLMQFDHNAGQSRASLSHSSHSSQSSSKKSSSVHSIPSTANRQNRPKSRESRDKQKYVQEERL

B1: human calcium sensitive potassium channel β3c subunit, Q9NPA1 23-279 (protein)
chain: MFPLLYELTAVSPSPFPQRTAFPASGKKRETDYSDGDPLDVHKRLPSSTGEDRAVMLGFAMMGFSVLMFFLLGTTILKPFMLSIQREESTCTAIHTDIMDDWLDCAFTCGVHCHGQGKYPCLQVFVNLSHPGQKALLHYNEEAVQINPKCFYTPKCHQDRSDLLNSALDIKEFFDHKNGTPFSCFYSPASQSEDVILIKKYDQMAIFHCLFWPSLTLLGGALIVGMVRLTQHLSLLCEKYSTVVRDEVGGKVPYIEQHQFKLCIMRRSKGRAEKS
V1/2 (half-maximal activation voltage, Boltzmann fit, inside-out patches, 30 µM Ca2+): 20 mV
τinact (inactivation time constant at 80 mV with 30 µM intracellular Ca2+): 30 to 40 ms

B2: human calcium sensitive potassium channel β3a subunit, Q9NPA1 23-279 (protein)
chain: MQPFSIPVQITLQGSRRRQGRTAFPASGKKRETDYSDGDPLDVHKRLPSSTGEDRAVMLGFAMMGFSVLMFFLLGTTILKPFMLSIQREESTCTAIHTDIMDDWLDCAFTCGVHCHGQGKYPCLQVFVNLSHPGQKALLHYNEEAVQINPKCFYTPKCHQDRSDLLNSALDIKEFFDHKNGTPFSCFYSPASQSEDVILIKKYDQMAIFHCLFWPSLTLLGGALIVGMVRLTQHLSLLCEKYSTVVRDEVGGKVPYIEQHQFKLCIMRRSKGRAEKS
V1/2 (half-maximal activation voltage, Boltzmann fit, inside-out patches, 30 µM Ca2+): 45.4 mV
τinact (inactivation time constant at 80 mV with 30 µM intracellular Ca2+): 30 to 40 ms

B3: human calcium sensitive potassium channel β2 subunit, Q9Y691 1-235 (protein)
chain: MFIWTSGRTSSSYRHDEKRNIYQKIRDHDLLDKRKTVTALKAGEDRAILLGLAMMVCSIMMYFLLGITLLRSYMQSVWTEESQCTLLNASITETFNCSFSCGPDCWKLSQYPCLQVYVNLTSSGEKLLLYHTEETIKINQKCSYIPKCGKNFEESMSLVNVVMENFRKYQHFSCYSDPEGNQKSVILTKLYSSNVLFHSLFWPTCMMAGGVAIVAMVKLTQYLSLLCERIQRINR
V1/2 (half-maximal activation voltage, Boltzmann fit, inside-out patches, 30 µM Ca2+): -55 mV
shift in the voltage dependence of activation: 80 mV
τinact (inactivation time constant at 80 mV with 30 µM intracellular Ca2+): 30 to 40 ms
